Experimental data as given in article doi:10.1101/2025.08.18.670856.

B1: FetA-HIS (wild type, from the plasmid AHSG-bio-His) (natural protein)
chain: APHGPGLIYRQPNCDDPETEEAALVAIDYINQNLPWGYKHTLNQIDEVKVWPQQPSGELFEIEIDTLETTCHVLDPTPVARCSVRQLKEHAVEGDCDFQLLKLDGKFSVVYAKCDSSPDSAEDVRKVCQDCPLLAPLNDTRVVHAAKAALAAFNAQNNGSNFQLEEISRAQLVPLPPSTYVEFTVSGTDCVAKEATEAAKCNLLAEKQYGFCKATLSEKLGGAEVAVTCMVFQTQPVSSQPQPEGANEAVPTPVVDPDAPPSPPLGAPGLPPAGSPPDSHVLLAAPPGHQLHRAHYDLRHTFMGVVSLGSPSGEVSHPRKTRTVVQPSVGAAAGPVVPPCPGRIRHFKV

Columns and labels:
[1] = target: FetA-HIS (wild type, from the plasmid AHSG-bio-His) (human) (UniProt P02765); assay: SPR
[2] = target: HIF-1α wild type used in SPR: C-terminal domain (CTD) of hypoxia-stable HIF-1α (579-826 residues) (human) (UniProt Q16665); assay: SPR

Molecule | Kd [1] | Kd [2]
HIF-1α 743D>L point mutant (from UniProt Q16665 1-826) (natural protein) | 90 nM | –
B1 | – | 23.4 nM
